The values that follow come from the DeepSol protein solubility set.

The nature of the series: soluble on expression in E. coli; label from the status in PepcDB or PDB records.
As for “MIAGATAPSSQHEILIASNLIKKPSTSQNKTPTAQSSSGNNGAADGAPQGYHHHHHHHRHLWWPRTTDHQYWCVLRKNQFAYYKTRDEREAISVIPRFDILNFKISELDGILTVYTPSKDLIFKFPRGQNEKVGMELMHNWKIALEKFLSSPSGNESVTTGSDYDEEEDDDDLIVVDEKAGPSSSKHSCSLTMDEQLSREDKEFYRMFDPRNAEHQVCSGILYTKVKKKKLFNRAKWQKFNVELTNTSFNLYSFKTGKLKKSIKLDKIIDCIELDNNSKMKNDDTNFALITFDERLSFKAANDQDMVDWIINFKSGILIRKKLKAENI”, the “soluble on expression in E. coli” value is reported as “soluble”.
For “MICNCFLLIIVTLVISNCDGICLNHEGWGNVGSVFTDPLCNVWCEIKLCGPGQCIEDPMTTAPARCVCEKCYRDNSGNAVYPGGNNDYQQQAQMNRERQLDRQYNRQLRQQNRMNKAWQRGWQ” the value was “not soluble”; for “MIDDDGYRPNVGIVICNRQGQVMWARRFGQHSWQFPQGGINPGESAEQAMYRELFEEVGLSRKDVRILASTRNWLRYKLPKRLVRWDTKPVCIGQKQKWFLLQLVSGDAEINMQTSSTPEFDGWRWVSYWYPVRQVVSFKRDVYRRVMKEFASVVMSLQENTPK”, “soluble”; for “MIDDIRYLIVFAKIAETGSVSGGAEALGLSAATASLHLSRLERNLGRALLYRNSRKLSLTQDGTQLLDTARSMLELYEKGFIEFRQRAVSTRNSLRISMPAVFVNGDFTRHLAAFIEEHPDLDLGIACDDSRHDIIGDGIDIAFRIGDLPDSSLKARHLFLLPRQVVAAPAFLARHAPLEHPRDLQRLEWIGLGMRPDSRLFRHARDDEEVRVDYTPRVRVDSVEASCRLARLGVGLAAPPTYLSDEPIRRGELRAVLPEWRLEPLKVYAVWPPNVPASSIAYTLINRLYEAFNPG”, “not soluble”.
For “MIDHLSRAVISDPEQNLAIEQKESDHILPDSKMTPLRFRKRTLHETKIRTHSTLTENVLSHKLQFDGRIVSRTNVLPFIQKSIYSHQCGRRKGKQYRLGDFYVGATLTFLSSDHLSLPESIKENTLLKLRITNIDQIALDSLKTASMEQEDDIIIQETNDRLVFKAIQDVLKEKLHKRGVRILTGLGKYFQQLDKEGNGLLDKADFKQALKVFHLEVSEKDFESAWLILNDNGNGKVDYGEFKRGIIGEMNEYRKSYVRKAFMKLDFNKSGSVPIINIRKCYCAKKHSQVISG”, the “soluble on expression in E. coli” value is on record as “soluble”.
Next, “MIDKIVFEEDEEYDLTQDSFRYGRVTTGASYNLVTGKIPETVLEQVKAKDDENDDVEFEMDHLEDKEAVQKTKTFDELYESQMPKYFEYQSNFSEVNGIWTLLFDQNHYENMSTFELQAAICAALNSKHYMMICVGIDAFNAVTGVEMSAKDRVVFRMALTRAVAGEFQPPLVKVAPKQLTGVSPMKRDISEVTSSIDVLFIPVIGVTDEVENNRFLIVVRVKEISDKVYQISSGRIYNELEGRVVEMSDMNEAFHKLIVEQSISDIQTRRGSMFMLEPEPFLEDSPVIFTGSKEILRENHEIPNILKENSTERSLSQSLLNLLDIQNIGWIFFGTALSCCIYNNAIKPLVK”: “not soluble”; “MIDQHQYIERESGSVCNERLFGDRLIRLLYHGARENAPFLFKMATSSWSSGLLGFINFDLPFGSNRRFLEECGVDLDECLDPPESLDTPRKVFERRIRYEQCRPMPEVQWAVVSPADARVLVGSFRDTSALFLKEKFFDFEELLGRHKEEWLRAFTGGEFAVFRLTPDKYHYNHTPVAGTVRDIYEIDGGYHSCNPGAVVIEATPFSKNRRVVTVIDTDVPGGTGVGLVAMIEVVALMIGQIVQCYSYEGYTAPRPVEPGMFLRRGVPKSLYRPGSSTDVLIFQRDRMHFADDIVRNMHDTRAASRFSHGFGRPLVETDVKVRSLIAVAVTNLEHHHHHH”: “not soluble”; “MIEIAKIGDDFDRWQDLLALIMTSFAYMDGVIDPPSSAYRLTLENLAEKARAEIAFVALDSDELLGCLFCRPEPPASLYVGKLCVSPKAQGKGIGKLLLLQAEALARELALPALRLETRIELLSNHTKFAAWGFVKTAENAHAGYDRTTSIEMTKFLG”: “not soluble”.
Next, “MIEKDVVQILKAVSEFYPGRFQPDDLKGTVKAWHRVLAEYELEEIMNNLTDYAKVNKFPPTVSDLLKAQSEQRDRFIPSYEETQRILKEQAEAEEAARNDPDLQAAQEENMRKIREMLGINRGGAR”: “soluble”; “MIELEVFPHRYLKAETTEKFLNRAYSLSKVQRVVIHGESLPNKVGYGPAKGTPVNHSEKKEITVKGVPVELMLQVGRLWVLLDDESEIEKIEEICKDLFPFGYRLTKGKFLRNDPTVSDFIKYGESAVDDIDKRLLGATDPRSKFDSSVTIIPKSEKNELEHHHHHH”: “soluble”.
